Assay results reported in publication PMC9618773 (iScience, 2022).

B5: full-length human steroid receptor coactivator-2 (natural protein)
chain: not shown

Tests used:
full-length human p300 [1] = target: T1, full-length human p300 (human, UniProt Q09472 1-2414); experiment: pull-down
[2] = target: B5; experiment: pull-down
cryo-EM structure = target: the molecule itself; experiment: cryo-EM structure
[3] = target: B5; experiment: cryo-EM structure
full-length human p300 [4] = target: T1, full-length human p300; experiment: cryo-EM structure

T1 sequence (Q09472 whole entry): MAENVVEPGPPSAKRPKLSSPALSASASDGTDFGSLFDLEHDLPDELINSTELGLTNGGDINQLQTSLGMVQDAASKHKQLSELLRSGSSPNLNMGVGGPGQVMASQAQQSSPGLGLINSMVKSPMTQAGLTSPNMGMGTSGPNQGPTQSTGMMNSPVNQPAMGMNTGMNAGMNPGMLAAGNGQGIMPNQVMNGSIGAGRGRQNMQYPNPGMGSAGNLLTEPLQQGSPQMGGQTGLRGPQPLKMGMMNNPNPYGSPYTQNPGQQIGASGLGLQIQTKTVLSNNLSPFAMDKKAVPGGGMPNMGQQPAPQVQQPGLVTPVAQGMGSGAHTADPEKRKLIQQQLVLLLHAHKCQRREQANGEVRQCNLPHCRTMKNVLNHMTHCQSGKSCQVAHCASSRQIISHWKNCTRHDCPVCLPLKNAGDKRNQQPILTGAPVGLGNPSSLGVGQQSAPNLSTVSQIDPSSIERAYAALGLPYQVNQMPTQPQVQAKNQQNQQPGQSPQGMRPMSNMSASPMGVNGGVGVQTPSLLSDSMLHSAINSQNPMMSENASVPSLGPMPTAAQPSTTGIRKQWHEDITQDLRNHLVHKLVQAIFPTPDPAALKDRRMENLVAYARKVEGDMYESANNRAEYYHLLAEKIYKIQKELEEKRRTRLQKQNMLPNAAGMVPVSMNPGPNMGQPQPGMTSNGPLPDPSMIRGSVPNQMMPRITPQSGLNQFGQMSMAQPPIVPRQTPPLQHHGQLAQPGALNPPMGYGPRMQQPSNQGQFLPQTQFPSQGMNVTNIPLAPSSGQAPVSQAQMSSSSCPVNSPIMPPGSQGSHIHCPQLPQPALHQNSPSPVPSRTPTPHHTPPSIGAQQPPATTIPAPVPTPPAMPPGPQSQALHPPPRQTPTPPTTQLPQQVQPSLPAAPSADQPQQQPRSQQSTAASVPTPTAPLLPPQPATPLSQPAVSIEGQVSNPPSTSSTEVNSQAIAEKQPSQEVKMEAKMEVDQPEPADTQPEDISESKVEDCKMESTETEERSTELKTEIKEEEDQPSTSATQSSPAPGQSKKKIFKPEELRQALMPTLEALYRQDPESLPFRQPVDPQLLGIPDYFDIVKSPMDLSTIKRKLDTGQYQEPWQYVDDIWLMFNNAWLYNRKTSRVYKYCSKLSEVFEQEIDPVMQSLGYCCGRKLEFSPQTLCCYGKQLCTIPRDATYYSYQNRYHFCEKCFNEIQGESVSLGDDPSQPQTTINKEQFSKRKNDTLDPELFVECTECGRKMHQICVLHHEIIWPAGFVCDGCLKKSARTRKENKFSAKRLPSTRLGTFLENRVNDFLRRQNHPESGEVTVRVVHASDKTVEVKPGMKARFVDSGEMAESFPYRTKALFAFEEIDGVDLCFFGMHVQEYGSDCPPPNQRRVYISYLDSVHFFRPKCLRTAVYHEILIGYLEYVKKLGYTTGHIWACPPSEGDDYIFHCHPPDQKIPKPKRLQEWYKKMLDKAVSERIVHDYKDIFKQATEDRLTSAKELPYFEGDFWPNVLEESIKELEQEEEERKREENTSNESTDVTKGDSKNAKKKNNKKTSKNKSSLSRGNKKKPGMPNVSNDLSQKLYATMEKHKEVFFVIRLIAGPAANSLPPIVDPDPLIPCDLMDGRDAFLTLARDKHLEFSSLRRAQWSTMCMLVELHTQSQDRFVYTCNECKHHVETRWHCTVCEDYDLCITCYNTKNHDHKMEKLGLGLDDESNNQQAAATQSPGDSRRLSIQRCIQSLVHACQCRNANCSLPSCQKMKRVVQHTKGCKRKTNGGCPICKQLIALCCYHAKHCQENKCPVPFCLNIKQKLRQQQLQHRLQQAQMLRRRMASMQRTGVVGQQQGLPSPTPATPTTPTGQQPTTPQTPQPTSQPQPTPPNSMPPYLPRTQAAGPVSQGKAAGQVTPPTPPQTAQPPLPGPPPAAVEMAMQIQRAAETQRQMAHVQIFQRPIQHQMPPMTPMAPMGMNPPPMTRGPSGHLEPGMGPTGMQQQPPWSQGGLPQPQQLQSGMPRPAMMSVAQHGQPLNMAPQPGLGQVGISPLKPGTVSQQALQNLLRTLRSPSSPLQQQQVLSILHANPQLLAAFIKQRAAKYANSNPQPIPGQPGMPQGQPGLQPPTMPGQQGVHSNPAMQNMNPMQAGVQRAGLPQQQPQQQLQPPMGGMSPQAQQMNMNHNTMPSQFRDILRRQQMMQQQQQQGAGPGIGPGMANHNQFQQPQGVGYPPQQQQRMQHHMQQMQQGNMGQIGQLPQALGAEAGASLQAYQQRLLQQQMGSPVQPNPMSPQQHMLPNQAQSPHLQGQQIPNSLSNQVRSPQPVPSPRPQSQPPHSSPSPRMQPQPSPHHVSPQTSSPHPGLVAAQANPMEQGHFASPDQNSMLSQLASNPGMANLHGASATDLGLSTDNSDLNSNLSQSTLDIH

B1: GST-fused PR-B fragment AF3 (1-170 aa) (domain or fragment, human, UniProt P06401 1-170, looked up)
chain: MTELKAKGPRAPHVAGGPPSPEVGSPLLCRPAAGPFPGSQTSDTLPEVSAIPISLDGLLFPRPCQGQDPSDEKTQDQQSLSDVEGAYSRAEATRGAGGSSSSPPEKDSGLLDSVLDTLLAPSGPGQSQPSPPACEVTSSWCLFGPELPEDPPAAPATQRVLSPLMSRSGC
B1: binds (full-length human p300 [1]).

B2: GST-fused PR-B fragment AF1 (401-546 aa) (domain or fragment, human, UniProt P06401 401-546, looked up)
chain: PRSYLVAGANPAAFPDFPLGPPPPLPPRATPSRPGEAAVTAAPASASVSSASSSGSTLECILYKAEGAPPQQGPFAPPPCKAPGASGCLLPRDGLPSTSASAAAAGAAPALYPALGLNGLPQLGYQAAVLKEGLPQVYPPYLNYLR
B2: binds [2]; binds (full-length human p300 [1]).

B3: full-length human progesterone receptor-B (receptor, UniProt P06401 1-933, looked up)
chain: MTELKAKGPRAPHVAGGPPSPEVGSPLLCRPAAGPFPGSQTSDTLPEVSAIPISLDGLLFPRPCQGQDPSDEKTQDQQSLSDVEGAYSRAEATRGAGGSSSSPPEKDSGLLDSVLDTLLAPSGPGQSQPSPPACEVTSSWCLFGPELPEDPPAAPATQRVLSPLMSRSGCKVGDSSGTAAAHKVLPRGLSPARQLLLPASESPHWSGAPVKPSPQAAAVEVEEEDGSESEESAGPLLKGKPRALGGAAAGGGAAAVPPGAAAGGVALVPKEDSRFSAPRVALVEQDAPMAPGRSPLATTVMDFIHVPILPLNHALLAARTRQLLEDESYDGGAGAASAFAPPRSSPCASSTPVAVGDFPDCAYPPDAEPKDDAYPLYSDFQPPALKIKEEEEGAEASARSPRSYLVAGANPAAFPDFPLGPPPPLPPRATPSRPGEAAVTAAPASASVSSASSSGSTLECILYKAEGAPPQQGPFAPPPCKAPGASGCLLPRDGLPSTSASAAAAGAAPALYPALGLNGLPQLGYQAAVLKEGLPQVYPPYLNYLRPDSEASQSPQYSFESLPQKICLICGDEASGCHYGVLTCGSCKVFFKRAMEGQHNYLCAGRNDCIVDKIRRKNCPACRLRKCCQAGMVLGGRKFKKFNKVRVVRALDAVALPQPVGVPNESQALSQRFTFSPGQDIQLIPPLINLLMSIEPDVIYAGHDNTKPDTSSSLLTSLNQLGERQLLSVVKWSKSLPGFRNLHIDDQITLIQYSWMSLMVFGLGWRSYKHVSGQMLYFAPDLILNEQRMKESSFYSLCLTMWQIPQEFVKLQVSQEEFLCMKVLLLLNTIPLEGLRSQTQFEEMRSSYIRELIKAIGLRQKGVVSSSQRFYQLTKLLDNLHDLVKQLHLYCLNTFIQSRALSVEFPEMMSEVIAAQLPKILAGMVKPLLFHKK
For B3, the “stoichiometry N” value (cryo-EM structure) was 2, the binding result [3] was “binds” and the binding result (full-length human p300 [4]) was “binds”.

B4: GST-fused PR-B fragment LBD (688-933 aa, which contains the AF2) (domain or fragment, human, UniProt P06401 688-933, looked up)
chain: INLLMSIEPDVIYAGHDNTKPDTSSSLLTSLNQLGERQLLSVVKWSKSLPGFRNLHIDDQITLIQYSWMSLMVFGLGWRSYKHVSGQMLYFAPDLILNEQRMKESSFYSLCLTMWQIPQEFVKLQVSQEEFLCMKVLLLLNTIPLEGLRSQTQFEEMRSSYIRELIKAIGLRQKGVVSSSQRFYQLTKLLDNLHDLVKQLHLYCLNTFIQSRALSVEFPEMMSEVIAAQLPKILAGMVKPLLFHKK
B4: binds (full-length human p300 [1]).

B5: binds (full-length human p300 [4]).
